Measured values reported in the supplement of paper PMC10065799, “High-throughput profiling of sequence recognition by tyrosine kinases and SH2 domains using bacterial peptide display” (eLife, 2023).

Assays:
AncSZ = experiment: phosphorylation enrichment, bacterial display (enrichment ratio); higher = better substrate or ligand; peptides without Tyr show the background
EPHB1 = EPHB1 (UniProt P54762); experiment: as above
EPHB2 = EPHB2 (UniProt P29323); experiment: as above
FGFR1 = FGFR1 (UniProt P11362); experiment: as above
FGFR3 = FGFR3 (UniProt P22607); experiment: as above
Fer (mouse) = experiment: as above
Fes = Fes (UniProt P07332); experiment: as above
Fyn = Fyn (UniProt P06241); experiment: as above
Hck = Hck (UniProt P08631); experiment: as above
Jak2 = Jak2 (UniProt O60674); experiment: as above
MERTK = MERTK (UniProt Q12866); experiment: as above
c-Abl (mouse) = experiment: as above
c-Src = experiment: as above
Grb2 SH2 = Grb2 SH2 (UniProt P62993); experiment: SH2 binding enrichment of the phosphorylated peptide, bacterial display (enrichment ratio); higher = better substrate or ligand; peptides without Tyr show the background
SHP2-C SH2 = experiment: as above
c-Src SH2 = experiment: as above
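Throughout, for SH2 binding enrichment of the phosphorylated peptide, bacterial display: peptide library displayed on the E. coli surface as eCPX fusions, selected cells deep-sequenced, score is each peptide's frequency after selection divided by its frequency in the input.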
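Throughout, for phosphorylation enrichment, bacterial display: 11-residue human phosphosite peptides and single-mutation variants displayed on the E. coli surface, counted by deep sequencing, each peptide's frequency after selection divided by its frequency in the unselected input library; frequency after pTyr selection over input frequency; kinase dosed for 20-30% of maximal phosphorylation in three min.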

Sequence of EPHB2 (P29323 whole entry, looked up): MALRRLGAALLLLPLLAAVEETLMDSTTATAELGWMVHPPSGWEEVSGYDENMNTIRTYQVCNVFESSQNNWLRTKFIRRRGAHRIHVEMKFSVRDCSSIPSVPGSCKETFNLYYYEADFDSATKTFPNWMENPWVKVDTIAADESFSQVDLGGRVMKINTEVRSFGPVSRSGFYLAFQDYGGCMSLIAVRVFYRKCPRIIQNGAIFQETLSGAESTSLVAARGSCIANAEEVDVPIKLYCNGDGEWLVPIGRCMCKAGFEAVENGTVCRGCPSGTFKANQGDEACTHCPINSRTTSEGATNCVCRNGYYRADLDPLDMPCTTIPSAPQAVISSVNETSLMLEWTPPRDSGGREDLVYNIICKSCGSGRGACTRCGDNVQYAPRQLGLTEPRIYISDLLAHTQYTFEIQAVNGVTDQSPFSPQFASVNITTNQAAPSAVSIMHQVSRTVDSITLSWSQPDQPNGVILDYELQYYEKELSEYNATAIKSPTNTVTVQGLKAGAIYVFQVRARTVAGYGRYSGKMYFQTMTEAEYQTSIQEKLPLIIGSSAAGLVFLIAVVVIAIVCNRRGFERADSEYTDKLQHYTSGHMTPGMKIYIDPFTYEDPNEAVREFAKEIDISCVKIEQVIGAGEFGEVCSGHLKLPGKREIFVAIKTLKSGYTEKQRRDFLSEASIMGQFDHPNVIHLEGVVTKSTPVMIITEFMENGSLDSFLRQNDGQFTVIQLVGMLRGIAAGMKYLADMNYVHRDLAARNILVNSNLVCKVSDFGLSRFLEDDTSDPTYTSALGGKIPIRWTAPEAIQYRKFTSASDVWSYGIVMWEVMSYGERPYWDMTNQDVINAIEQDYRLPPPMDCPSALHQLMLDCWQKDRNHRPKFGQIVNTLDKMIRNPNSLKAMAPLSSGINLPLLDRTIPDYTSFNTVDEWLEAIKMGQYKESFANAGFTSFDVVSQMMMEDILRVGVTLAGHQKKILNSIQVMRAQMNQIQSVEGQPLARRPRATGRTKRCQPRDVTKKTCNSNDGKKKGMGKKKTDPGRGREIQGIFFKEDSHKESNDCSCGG
Sequence of Grb2 SH2 (P62993 whole entry, looked up): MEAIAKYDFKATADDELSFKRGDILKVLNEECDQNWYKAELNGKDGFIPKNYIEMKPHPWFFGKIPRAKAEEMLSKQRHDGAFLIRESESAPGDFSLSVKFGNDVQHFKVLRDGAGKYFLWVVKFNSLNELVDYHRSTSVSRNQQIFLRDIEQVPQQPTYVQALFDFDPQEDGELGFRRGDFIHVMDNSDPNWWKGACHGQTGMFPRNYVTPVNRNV
Sequence of Hck (P08631 whole entry, looked up): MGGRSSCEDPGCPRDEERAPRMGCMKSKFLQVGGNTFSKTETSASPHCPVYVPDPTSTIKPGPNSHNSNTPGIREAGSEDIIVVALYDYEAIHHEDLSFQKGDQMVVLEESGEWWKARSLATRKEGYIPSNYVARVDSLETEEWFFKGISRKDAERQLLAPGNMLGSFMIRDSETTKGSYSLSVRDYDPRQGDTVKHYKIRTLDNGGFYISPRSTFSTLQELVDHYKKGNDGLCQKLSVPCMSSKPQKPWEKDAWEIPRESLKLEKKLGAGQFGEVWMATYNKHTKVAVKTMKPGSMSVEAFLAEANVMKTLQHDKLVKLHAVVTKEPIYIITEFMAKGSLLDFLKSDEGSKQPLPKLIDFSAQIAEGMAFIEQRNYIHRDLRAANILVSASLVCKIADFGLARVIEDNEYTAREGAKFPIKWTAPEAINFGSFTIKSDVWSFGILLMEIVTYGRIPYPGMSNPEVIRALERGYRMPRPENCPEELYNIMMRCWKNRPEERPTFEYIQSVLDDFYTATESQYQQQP
Sequence of MERTK (Q12866 whole entry, looked up): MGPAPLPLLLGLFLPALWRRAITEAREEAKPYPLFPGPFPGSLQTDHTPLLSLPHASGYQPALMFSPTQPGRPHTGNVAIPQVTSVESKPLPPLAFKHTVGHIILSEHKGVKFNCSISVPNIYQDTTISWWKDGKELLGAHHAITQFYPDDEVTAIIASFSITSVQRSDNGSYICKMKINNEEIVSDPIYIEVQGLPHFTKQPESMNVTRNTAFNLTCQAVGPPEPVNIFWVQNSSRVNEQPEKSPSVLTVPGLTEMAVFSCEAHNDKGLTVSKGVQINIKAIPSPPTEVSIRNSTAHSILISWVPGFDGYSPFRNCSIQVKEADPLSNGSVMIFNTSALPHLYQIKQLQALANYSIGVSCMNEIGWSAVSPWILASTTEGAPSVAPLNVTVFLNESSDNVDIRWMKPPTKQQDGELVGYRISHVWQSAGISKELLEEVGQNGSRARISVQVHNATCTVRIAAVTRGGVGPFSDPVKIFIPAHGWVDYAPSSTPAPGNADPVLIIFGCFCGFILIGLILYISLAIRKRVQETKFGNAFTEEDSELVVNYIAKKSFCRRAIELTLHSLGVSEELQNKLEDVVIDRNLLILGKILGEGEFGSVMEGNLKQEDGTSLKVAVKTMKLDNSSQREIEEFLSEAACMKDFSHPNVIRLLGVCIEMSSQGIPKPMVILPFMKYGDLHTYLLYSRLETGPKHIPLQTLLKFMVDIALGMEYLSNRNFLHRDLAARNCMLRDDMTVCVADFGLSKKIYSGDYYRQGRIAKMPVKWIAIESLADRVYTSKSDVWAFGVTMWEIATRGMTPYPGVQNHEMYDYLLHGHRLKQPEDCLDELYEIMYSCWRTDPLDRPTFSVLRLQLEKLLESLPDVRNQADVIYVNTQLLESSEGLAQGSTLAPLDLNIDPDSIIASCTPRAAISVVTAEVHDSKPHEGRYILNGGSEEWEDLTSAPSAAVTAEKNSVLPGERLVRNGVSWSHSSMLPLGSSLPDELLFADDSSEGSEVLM
Sequence of EPHB1 (P54762 whole entry, looked up): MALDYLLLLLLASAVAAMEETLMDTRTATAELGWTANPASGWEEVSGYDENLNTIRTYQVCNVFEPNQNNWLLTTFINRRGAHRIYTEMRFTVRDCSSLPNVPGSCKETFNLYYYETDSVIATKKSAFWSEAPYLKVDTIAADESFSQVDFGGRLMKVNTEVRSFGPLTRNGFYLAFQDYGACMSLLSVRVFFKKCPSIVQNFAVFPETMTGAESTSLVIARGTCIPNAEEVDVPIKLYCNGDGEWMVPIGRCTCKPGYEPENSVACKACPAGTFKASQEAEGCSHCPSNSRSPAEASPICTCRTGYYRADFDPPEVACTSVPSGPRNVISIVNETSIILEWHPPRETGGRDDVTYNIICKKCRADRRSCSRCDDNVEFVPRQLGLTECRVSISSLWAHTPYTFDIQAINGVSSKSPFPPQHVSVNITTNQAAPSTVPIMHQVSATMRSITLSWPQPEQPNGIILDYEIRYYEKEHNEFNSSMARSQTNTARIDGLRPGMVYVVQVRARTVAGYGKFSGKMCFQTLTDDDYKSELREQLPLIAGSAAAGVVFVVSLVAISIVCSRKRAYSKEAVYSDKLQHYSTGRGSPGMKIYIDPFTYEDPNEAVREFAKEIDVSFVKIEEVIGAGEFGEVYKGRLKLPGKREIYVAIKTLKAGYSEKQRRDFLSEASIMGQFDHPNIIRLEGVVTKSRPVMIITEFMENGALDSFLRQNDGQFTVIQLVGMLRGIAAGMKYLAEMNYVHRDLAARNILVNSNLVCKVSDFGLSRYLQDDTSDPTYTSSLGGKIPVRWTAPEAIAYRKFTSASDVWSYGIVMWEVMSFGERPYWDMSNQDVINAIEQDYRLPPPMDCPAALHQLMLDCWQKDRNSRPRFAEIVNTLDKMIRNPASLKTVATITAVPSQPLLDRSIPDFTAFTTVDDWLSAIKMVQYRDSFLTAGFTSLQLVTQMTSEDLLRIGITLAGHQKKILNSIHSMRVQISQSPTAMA
Sequence of Jak2 (O60674 whole entry, looked up): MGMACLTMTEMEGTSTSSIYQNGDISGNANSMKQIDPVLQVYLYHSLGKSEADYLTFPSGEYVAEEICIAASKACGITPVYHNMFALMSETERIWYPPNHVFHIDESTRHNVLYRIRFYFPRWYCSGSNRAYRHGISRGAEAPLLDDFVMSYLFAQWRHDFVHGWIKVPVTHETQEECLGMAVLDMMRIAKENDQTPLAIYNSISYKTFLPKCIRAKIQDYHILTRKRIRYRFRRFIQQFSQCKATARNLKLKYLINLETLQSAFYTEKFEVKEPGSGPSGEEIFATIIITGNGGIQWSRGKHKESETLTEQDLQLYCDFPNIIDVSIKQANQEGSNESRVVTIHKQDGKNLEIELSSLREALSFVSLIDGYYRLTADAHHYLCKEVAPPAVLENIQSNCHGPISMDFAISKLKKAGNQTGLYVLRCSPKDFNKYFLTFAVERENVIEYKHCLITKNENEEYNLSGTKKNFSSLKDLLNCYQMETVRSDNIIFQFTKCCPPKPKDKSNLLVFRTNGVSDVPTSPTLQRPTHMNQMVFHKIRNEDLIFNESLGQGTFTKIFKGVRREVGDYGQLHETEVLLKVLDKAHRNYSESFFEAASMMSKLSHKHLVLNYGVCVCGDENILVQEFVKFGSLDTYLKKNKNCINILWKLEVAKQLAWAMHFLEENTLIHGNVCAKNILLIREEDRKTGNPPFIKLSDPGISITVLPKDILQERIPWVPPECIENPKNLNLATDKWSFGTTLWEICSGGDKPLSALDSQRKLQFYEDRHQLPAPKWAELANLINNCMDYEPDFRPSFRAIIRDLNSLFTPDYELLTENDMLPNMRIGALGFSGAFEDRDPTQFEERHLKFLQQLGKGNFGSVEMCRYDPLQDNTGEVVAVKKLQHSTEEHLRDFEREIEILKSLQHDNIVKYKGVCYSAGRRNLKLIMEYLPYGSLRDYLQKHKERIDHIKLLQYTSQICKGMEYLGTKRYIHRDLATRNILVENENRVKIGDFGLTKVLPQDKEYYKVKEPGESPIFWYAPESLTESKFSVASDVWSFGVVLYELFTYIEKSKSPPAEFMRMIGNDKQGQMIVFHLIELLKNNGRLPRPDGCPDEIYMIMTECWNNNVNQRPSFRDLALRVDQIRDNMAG

Row | Sequence | phosphorylation enrichment (AncSZ) | phosphorylation enrichment (EPHB1) | phosphorylation enrichment (EPHB2) | phosphorylation enrichment (FGFR1) | phosphorylation enrichment (FGFR3) | phosphorylation enrichment (Fer (mouse)) | phosphorylation enrichment (Fes) | phosphorylation enrichment (Fyn) | phosphorylation enrichment (Hck) | phosphorylation enrichment (Jak2) | phosphorylation enrichment (MERTK) | phosphorylation enrichment (c-Abl (mouse)) | phosphorylation enrichment (c-Src) | SH2 binding enrichment (Grb2 SH2) | SH2 binding enrichment (SHP2-C SH2) | SH2 binding enrichment (c-Src SH2)
1 | SWSTSYSGYRC [NKAPL_Y91_Y96C] | 0.944 | 0.551 | 0.547 | 0.585 | 0.62 | 0.532 | 0.993 | 0.462 | 0.552 | 0.98 | 0.443 | 0.751 | 0.848 | 0.914 | 0.798 | 0.63
2 | TAALWYIYSHT [ENG_Y612] | 1.15 | 0.794 | 0.832 | 0.497 | 0.689 | 0.586 | 1.14 | 1.52 | 1.3 | 0.984 | 0.878 | 0.748 | 1.82 | 0.781 | 0.918 | 0.6
3 | TDLAFYLVREG [ASL_Y376_K380E_YF] | 1.28 | 0.709 | 0.703 | 0.574 | 1.01 | 0.555 | 1.59 | 0.437 | 0.546 | 1.24 | 0.501 | 0.85 | 0.519 | 0.634 | 0.675 | 0.612
4 | TDRNLYSKNLV [CFAP58_Y501_S496T] | 0.564 | 0.555 | 0.56 | 0.505 | 0.531 | 1.35 | 0.737 | 0.465 | 0.654 | 0.758 | 0.959 | 0.66 | 0.627 | 0.769 | 0.559 | 0.408
5 | TDTQLYGRFGS [ITGA2B_Y384_G380D] | 0.783 | 0.608 | 0.583 | 0.487 | 0.464 | 0.479 | 0.888 | 11.1 | 9.16 | 0.645 | 0.98 | 0.769 | 7.4 | 0.734 | 0.656 | 0.418
6 | TEAEPYFRSLR [NPHS1_Y1138_YF] | 0.852 | 0.448 | 0.519 | 0.399 | 0.639 | 0.494 | 0.953 | 0.557 | 0.511 | 0.843 | 0.447 | 0.758 | 0.477 | 0.938 | 1.02 | 0.571
7 | TEFSQYMRRKN [MAX_Y73_I71S_YF] | 0.76 | 0.538 | 0.625 | 0.718 | 0.626 | 0.516 | 0.901 | 0.647 | 0.715 | 0.727 | 0.727 | 0.836 | 0.735 | 0.608 | 0.279 | 0.37
8 | TEGNGYISFNE [LCP1_Y28_D24E] | 1.09 | 0.734 | 0.595 | 0.468 | 0.636 | 0.487 | 1.01 | 0.539 | 0.528 | 0.823 | 0.499 | 0.723 | 0.573 | 0.722 | 0.889 | 14.1
9 | TEYIQYMRRKN [MAX_Y73] | 0.734 | 0.404 | 0.528 | 0.7 | 0.609 | 0.523 | 0.615 | 0.468 | 0.7 | 0.718 | 0.545 | 0.546 | 0.491 | 0.462 | 0.737 | 0.473
10 | TEYIQYVRRKN [MAX_Y73_M74V] | 0.712 | 0.465 | 0.425 | 0.528 | 0.488 | 0.454 | 0.573 | 0.615 | 0.589 | 0.548 | 0.647 | 0.875 | 0.657 | 0.834 | 0.64 | 0.463
11 | TFEFRYLEDQD [CNOT3_Y746_R750Q_YF] | 1.89 | 0.646 | 0.44 | 0.497 | 0.903 | 0.438 | 1.44 | 0.506 | 0.622 | 1.92 | 0.643 | 0.997 | 0.597 | 0.908 | 0.865 | 0.602
12 | TFGNLYGSRKQ [YIPF7_Y59_A54T_YF] | 0.629 | 0.366 | 0.398 | 0.514 | 0.421 | 0.457 | 0.788 | 0.911 | 3.44 | 0.507 | 0.641 | 0.585 | 1.81 | 0.851 | 0.512 | 0.348
13 | TFGVLYKARNK [CDK2_Y19_V18L_YF] | 0.838 | 0.592 | 0.599 | 0.436 | 0.586 | 0.536 | 0.906 | 0.421 | 0.561 | 0.796 | 0.343 | 0.487 | 0.424 | 0.828 | 0.423 | 0.49
14 | TFHNTYHSHMR [IL1RAPL1_Y615_Q618H] | 0.529 | 0.367 | 0.485 | 0.67 | 0.424 | 0.44 | 0.884 | 0.4 | 0.667 | 0.725 | 0.482 | 0.538 | 0.554 | 1.09 | 1.51 | 0.861
15 | TGILLHGLASR [QARS1_Y57_Y57H] | 0.417 | 0.28 | 0.328 | 0.367 | 0.379 | 0.218 | 0.629 | 0.281 | 0.301 | 0.488 | 0.419 | 0.528 | 0.469 | 0.783 | 0.801 | 0.593
16 | THLARYSDELR [APOA1_Y190_P189R] | 0.653 | 0.32 | 0.412 | 0.437 | 0.449 | 0.616 | 0.645 | 0.539 | 0.4 | 0.543 | 0.494 | 0.405 | 0.397 | 0.96 | 0.622 | 0.554
17 | TIWDSYTTNKV [GNB1_Y85_I80T] | 0.964 | 0.537 | 0.452 | 0.509 | 0.633 | 0.485 | 1.11 | 0.444 | 0.473 | 1.19 | 0.463 | 0.699 | 0.496 | 0.855 | 0.893 | 0.388

Row | Sequence | phosphorylation enrichment (AncSZ) | phosphorylation enrichment (EPHB1) | phosphorylation enrichment (EPHB2) | phosphorylation enrichment (FGFR1) | phosphorylation enrichment (FGFR3) | phosphorylation enrichment (Fer (mouse)) | phosphorylation enrichment (Fes) | phosphorylation enrichment (Fyn) | phosphorylation enrichment (Hck) | phosphorylation enrichment (Jak2) | phosphorylation enrichment (MERTK) | phosphorylation enrichment (c-Abl (mouse)) | phosphorylation enrichment (c-Src) | SH2 binding enrichment (Grb2 SH2) | SH2 binding enrichment (SHP2-C SH2) | SH2 binding enrichment (c-Src SH2)
18 | TKDTFHKQPMF [GBA_Y451_Y451H] | 0.454 | 0.29 | 0.352 | 0.304 | 0.391 | 0.249 | 0.476 | 0.333 | 0.312 | 0.468 | 0.403 | 0.445 | 0.459 | 0.884 | 0.884 | 0.547
19 | TKDTFYKQPMF [GBA_Y451] | 0.583 | 0.257 | 0.37 | 0.389 | 0.42 | 0.362 | 0.638 | 0.419 | 0.39 | 0.535 | 0.385 | 0.954 | 0.42 | 0.571 | 0.692 | 0.401
20 | TKFVAYIESQG [KDM4B_Y34_N29T_YF] | 0.974 | 0.499 | 0.56 | 0.51 | 0.685 | 0.403 | 1.02 | 0.497 | 0.578 | 1.12 | 0.307 | 0.64 | 0.396 | 0.736 | 0.703 | 0.6
21 | TLCLCYKETEE [ATP8B1_Y658_I661T] | 1.42 | 0.879 | 0.749 | 0.573 | 0.903 | 0.737 | 1.64 | 0.708 | 0.647 | 1.53 | 0.483 | 1.29 | 0.617 | 0.783 | 0.672 | 0.496
22 | TLRKTYGEMAD [ALB_Y108_E106K] | 0.535 | 0.307 | 0.355 | 0.508 | 0.51 | 0.379 | 0.709 | 0.387 | 0.433 | 0.752 | 0.381 | 0.462 | 0.419 | 0.788 | 0.537 | 0.449
23 | TMETKYDNISR [SETDB2_Y477_V473M] | 0.652 | 0.356 | 0.424 | 0.678 | 0.474 | 0.403 | 0.689 | 0.414 | 0.431 | 0.808 | 0.469 | 0.665 | 0.429 | 1.01 | 0.876 | 3.56
24 | TNGFTCGSSHQ [MANEA_Y331_Y331C] | 0.608 | 0.451 | 0.486 | 0.46 | 0.545 | 0.412 | 0.836 | 0.618 | 0.477 | 0.663 | 0.435 | 0.728 | 0.392 | 0.791 | 0.642 | 0.544
25 | TQPSPYAVYRF [RPGRIP1_Y823] | 0.912 | 1.22 | 1.84 | 0.794 | 0.795 | 9 | 0.834 | 11.5 | 7.95 | 0.898 | 8.69 | 22.2 | 10.1 | 0.847 | 1.04 | 1.7
26 | TQRPFYKGGGG [TYROBP_Y112_YF] | 0.48 | 0.221 | 0.31 | 0.346 | 0.438 | 0.331 | 0.512 | 0.314 | 0.42 | 0.451 | 0.331 | 0.624 | 0.403 | 0.947 | 0.7 | 0.65
27 | TRSYDYMEGGD [FGF7_Y58] | 1.02 | 0.58 | 0.593 | 0.486 | 0.731 | 0.456 | 1.03 | 0.458 | 0.488 | 0.802 | 0.45 | 0.586 | 0.447 | 0.871 | 0.538 | 6.41
28 | TSEASYYKSLN [NGEF_Y288] | 0.743 | 0.575 | 0.498 | 0.516 | 0.707 | 0.464 | 0.789 | 0.464 | 0.407 | 0.802 | 0.535 | 0.658 | 0.49 | 0.684 | 0.518 | 0.528
29 | TSPALYRLDLD [TRIL_Y352_A347T] | 0.943 | 0.567 | 0.51 | 0.529 | 0.721 | 0.499 | 1.24 | 0.74 | 0.817 | 0.859 | 0.395 | 0.741 | 1.44 | 0.685 | 0.465 | 0.36
30 | TTICKYITPME [GUCY2C_Y839_S840I] | 0.99 | 0.485 | 0.466 | 0.558 | 0.56 | 0.417 | 0.873 | 0.418 | 0.469 | 0.728 | 0.421 | 0.56 | 0.458 | 0.73 | 0.598 | 0.661
31 | TVDASYYGGRG [ANTXR2_Y380] | 0.512 | 0.411 | 0.503 | 0.546 | 0.561 | 0.559 | 0.66 | 0.73 | 1.14 | 0.609 | 0.495 | 0.576 | 0.642 | 0.763 | 0.424 | 0.604
32 | TVETKYDNISR [SETDB2_Y477] | 0.72 | 0.71 | 0.379 | 0.545 | 0.553 | 0.433 | 0.745 | 0.519 | 0.477 | 0.667 | 0.393 | 0.643 | 0.461 | 0.959 | 0.769 | 3.03
33 | TVNIRYLLFPS [SERAC1_Y548_S543T] | 1.21 | 0.728 | 0.725 | 0.578 | 0.829 | 0.564 | 1.21 | 0.577 | 0.574 | 1.11 | 0.606 | 0.716 | 0.434 | 1.9 | 1.46 | 1.26
